Results reported in IntAct's records for PubMed 36638908.

B1: Eukaryotic translation initiation factor 4E1 (Drosophila melanogaster (Fruit fly)), P48598 (parent)
chain: MQSDFHRMKNFANPKSMFKTSAPSTEQGRPEPPTSAAAPAEAKDVKPKEDPQETGEPAGNTATTTAPAGDDAVRTEHLYKHPLMNVWTLWYLENDRSKSWEDMQNEITSFDTVEDFWSLYNHIKPPSEIKLGSDYSLFKKNIRPMWEDAANKQGGRWVITLNKSSKTDLDNLWLDVLLCLIGEAFDHSDQICGAVINIRGKSNKISIWTADGNNEEAALEIGHKLRDALRLGRNNSLQYQLHKDTMVKQGSNVKSIYTL
partner: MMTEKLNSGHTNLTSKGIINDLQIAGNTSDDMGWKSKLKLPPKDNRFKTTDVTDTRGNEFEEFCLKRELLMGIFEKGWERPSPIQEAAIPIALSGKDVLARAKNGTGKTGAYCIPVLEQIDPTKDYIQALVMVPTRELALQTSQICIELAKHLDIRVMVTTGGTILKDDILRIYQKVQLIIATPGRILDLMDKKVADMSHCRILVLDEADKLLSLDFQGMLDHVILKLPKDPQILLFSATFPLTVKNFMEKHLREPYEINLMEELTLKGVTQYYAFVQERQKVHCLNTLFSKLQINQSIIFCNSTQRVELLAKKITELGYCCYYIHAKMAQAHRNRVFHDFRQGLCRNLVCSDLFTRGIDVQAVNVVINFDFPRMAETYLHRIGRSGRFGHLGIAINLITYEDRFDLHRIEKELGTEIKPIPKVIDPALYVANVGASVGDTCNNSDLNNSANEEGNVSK

Variants of: B1
Details: with ddx6_drome me31B

| effect of a mutation on the interaction | Variant |
| --- | --- |
| disrupting interaction strength | W117A |
